Assay [1] has as its target T1, EpCAM on the surface of EpCAM-positive tumor cell lines (UniProt P16422 24-314, limits assumed).
T1 sequence (looked up): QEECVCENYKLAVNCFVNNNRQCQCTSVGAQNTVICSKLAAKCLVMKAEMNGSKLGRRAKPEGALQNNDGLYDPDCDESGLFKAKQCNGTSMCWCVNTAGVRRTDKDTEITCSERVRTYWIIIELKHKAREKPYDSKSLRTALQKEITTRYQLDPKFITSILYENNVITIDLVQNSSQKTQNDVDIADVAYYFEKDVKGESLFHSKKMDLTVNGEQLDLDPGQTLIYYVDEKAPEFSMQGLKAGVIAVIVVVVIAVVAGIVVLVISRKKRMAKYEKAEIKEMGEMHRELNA
In words: cell-based or functional assay.

Assay [2] deals with T2, human EpCAM-Fc (human, UniProt P16422 24-265).
T2 construct: extracellular domain; also called human EpCAM/Fc fusion; recombinant human EpCAM antigen; not shown: human Fc region from IgG1; limits not readable
T2 sequence (looked up): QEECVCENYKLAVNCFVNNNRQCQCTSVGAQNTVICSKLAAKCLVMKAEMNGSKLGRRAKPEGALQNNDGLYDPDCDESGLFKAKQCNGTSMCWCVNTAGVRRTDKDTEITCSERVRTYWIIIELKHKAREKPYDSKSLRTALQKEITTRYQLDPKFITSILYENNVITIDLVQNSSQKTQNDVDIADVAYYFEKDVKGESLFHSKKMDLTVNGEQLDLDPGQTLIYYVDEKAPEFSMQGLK
In words: ELISA, plate coated with human EpCAM-Fc at 1 µg/ml, goat anti-human kappa-HRP, ABTS, Abs 405 nm. As to the method: (§1) For ELISA of antibodies in IgG format, the MAXI-sorb plate was coated with 1 μg/ml (100 μl per well) of human or cynomolgus EpCAM-Fc in PBS overnight at 4° C. The plates were blocked with 3% BSA in PBS for 2 hrs. The IgGs to be tested were added in 2-fold dilutions from 133 nM to 32 fM and incubated for 1 hr at room temperature. For detection of bound IgG, a goat anti-human kappa-HRP antibody (Southern Biotech, cat no 2060-05) was added in 1:5000 dilution in block solution and incubated for 1 hr at room temperature.
(§2) The ELISA of antibodies in IgG format was developed using a 1-step ABTS Kit (Thermo Scientific prod #37615) and a 25 min incubation time. The absorbance was measured on a SLT SPECTRA plate reader. The software Prism (GraphPad, San Diego, Calif.) was used to estimate the affinities using a non-linear fit of one-site model on the retrieved ELISA data.
(In general: ELISA stands for enzyme-linked immunosorbent assay.)

Assay [3] deals with T1, EpCAM on the surface of EpCAM-positive …. Kind of assay: flow cytometry on Kato III cells, RPE goat anti-human IgG detection, median fluorescence intensity. As to the method: Flow cytometric analysis was performed to analyze binding of the 3-17I IgG to EpCAM-positive cells. As positive controls, anti-EpCAM chimeric (mouse variable/human constant domains) and fully human antibodies, MOC31 and MT201, respectively, were used.
The anti-green fluorescent protein (GFP) antibody was used as a negative control. For flow cytometry, Kato III cells (ATCC number (gastric carcinoma, ATCC number HTB-103)) were grown under standard conditions, harvested from the culture flasks, washed 2 times with PBS, re-suspended in PBS with 0.2% BSA and 0.09% NaN₃ and finally distributed at 1×10⁵ cells per well into V-shaped 96-well plates (Greiner Bio-One, Frickenhausen, Germany). Cells were centrifuged at 400×g for 5 min and then incubated at 4° C. for 45 min with 50 μL of each different antibody dilution (all dilutions made in PBS with 0.2% BSA and 0.09% NaN₃). After washing in PBS with 0.2% BSA and 0.09% NaN₃, the cells were stained with 10 μg/mL of RPE-conjugated goat anti-human IgG (AbDSerotec, Düsseldorf, Germany) for 30 min at 4° C. The stained cells were washed, re-suspended in 200 μL PBS with 0.2% BSA and 0.09% NaN₃ and transferred to a U-shaped 96-well plate (Corning, Schiphol-Rijk, The Netherlands) for analysis on EasyCyte flow cytometer (Guava Technologies, Hayward, Calif., USA).
(In flow cytometry, cells or beads pass a laser one at a time.)

In assay [4] the target is T2, human EpCAM-Fc. In words: SPR, BIAcore T100, EpCAM-Fc coupled to CM5 chip (100 RU), 37 °C, 1:1 Langmuir model; SPR (BIAcore T100), 37 C, native EpCAM-Fc on the CM5 chip. As to the method: Binding of 3-17I to human and cynomolgus monkey EpCAM was analyzed using surface plasmon resonance (SPR) on a BIAcore T100 (BIAcore, Inc, Piscataway, N.J.). The extracellular domains of human or cynomolgus monkey EpCAM fused to human Fc (IgG1), were coupled to a CM5 chip (BIAcore, Inc, Piscataway, N.J.) at density of 100 RU. The SPR studies were performed using standard techniques at 37° C. with a flow rate of 50 μl/min. The data were analyzed using the 1:1 Langmuir binding model of the BIAcore software.

The target of a further assay is T3, cynomolgus EpCAM-Fc (cynomolgus; human, UniProt P01857 99-330 = IgG part).
T3 construct: also called Cynomolgus EpCAM/Fc fusion; recombinant cynomolgus EpCAM antigen
T3 sequence (P01857 other isoform, or with tags, fused parts or gaps limits assumed, form in doubt): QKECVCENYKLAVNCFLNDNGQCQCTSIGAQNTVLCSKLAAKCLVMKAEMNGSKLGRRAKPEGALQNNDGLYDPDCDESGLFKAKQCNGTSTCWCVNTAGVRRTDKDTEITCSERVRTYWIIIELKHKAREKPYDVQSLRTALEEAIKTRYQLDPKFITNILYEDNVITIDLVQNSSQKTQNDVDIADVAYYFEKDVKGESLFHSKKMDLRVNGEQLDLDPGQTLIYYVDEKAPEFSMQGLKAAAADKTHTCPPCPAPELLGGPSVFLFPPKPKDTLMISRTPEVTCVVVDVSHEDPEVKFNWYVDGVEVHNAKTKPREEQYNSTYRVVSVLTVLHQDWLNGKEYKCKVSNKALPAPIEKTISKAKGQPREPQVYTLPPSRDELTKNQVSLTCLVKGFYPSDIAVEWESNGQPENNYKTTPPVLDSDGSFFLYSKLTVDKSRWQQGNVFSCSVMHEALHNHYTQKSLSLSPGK
In words: ELISA, plate coated with cynomolgus EpCAM-Fc at 1 µg/ml, goat anti-human kappa-HRP, ABTS, Abs 405 nm. As to the method:
as §1, §2

The target of assay [5] is T2, human EpCAM-Fc. In words: ELISA, plate coated with human EpCAM-Fc at 5 µg/ml, scFv detected with mouse anti-cMyc 9E10 and rabbit anti-mouse-HRP, TMB, Abs 450 nm. As to the method: FIGS. 10A and 10B show ELISA binding analysis of 3-17I scFv, 7-F17 scFv, 17-C20 scFv and 24-G6 scFv to human EpCAM-Fc (FIG. 10A) and to cynomolgus EpCAM-Fc (FIG. 10B). MAXI-Sorb plates were coated with human or cynomolgus EpCAM-Fc at a concentration of 5 μg/ml. The antibody was added in 2-fold dilutions from 667 nM to 3.2 nM.
For ELISA of antibodies in scFv format, the MAXI-sorb plate was coated with 5 μg/ml (100 μl per well) of human or cynomolgus EpCAM-Fc in PBS overnight at 4° C. The plates were blocked with 4% skimmed milk (Merck product no 1.15363.0500) in PBS for 2 hrs. […] For detection of bound scFv, a rabbit anti-mouse-HRP antibody (Dako, cat no P0260) was added in 1:3000 dilution in block solution and incubated for 1 hr at room temperature.

These results are taken from US20100310463A1 (AFFITECH RESEARCH, published 2010).

B1: MT201 IgG (antibody, V domains shown)
VH: EVQLLESGGGVVQPGRSLRLSCAASGFTFSSYGMHWVRQAPGKGLEWVAVISYDGSNKYYADSVKGRFTISRDNSKNTLYLQMNSLRAEDTAVYYCAKDMGWGSGWRPYYYYGMDVWGQGTTVTVSS
VL: ELQMTQSPSSLSASVGDRVTITCRTSQSISSYLNWYQQKPGQPPKLLIYWASTRESGVPDRFSGSGSGTDFTLTISSLQPEDSATYYCQQSYDIPYTFGQGTKLEIK
Turning to B1, in assay [1], the “ADCC EC50, BT-474 cells, human PBMC, E:T 20:1” value came out at 382 ng/mL; the “ADCC EC50, MDA-MB-453 cells, human PBMC, E:T 20:1” value is 7 ng/mL; the “CDC EC50, KATO III cells, human serum” value is 76 ng/mL; the “CDC EC50, MT-3 cells, human serum” value was 89 ng/mL. The “CDC: fold higher antibody concentration needed than for 3-17I IgG (ratio of the EC50 values; KATO III and MT-3 cells, human serum)” value in assay [1] is 250 fold.

B2: 17-C20 IgG (antibody, V domains shown)
VH: QVQLVQSGAEVKKPGSSVKVSCKASGGTFSSYAISWVRQAPGQGLEWMGGIIPIFGTANYAQKFQGRVTITADESTSTAYMELSSLRSEDTAVYYCARGLLWNYWGQGTLVTVSS
VL: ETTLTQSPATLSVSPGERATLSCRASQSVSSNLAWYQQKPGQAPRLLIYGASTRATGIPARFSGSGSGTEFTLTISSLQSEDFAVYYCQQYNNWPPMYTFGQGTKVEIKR
notes: also called 17-C20 full length IgG
B2: the binding result with human EpCAM-Fc [2] is “binds”.

B3: 16-G5 IgG (antibody, V domains shown)
VH: QVQLVQSGAEVKKPGSSVKVSCKASGGTFSSYAISWVRQAPGQGLEWMGGIIPIFGTANYAQKFQGRVTITADESTSTAYMELSSLRSEDTAVYYCARGLLWNYWGQGTLVTVSS
VL: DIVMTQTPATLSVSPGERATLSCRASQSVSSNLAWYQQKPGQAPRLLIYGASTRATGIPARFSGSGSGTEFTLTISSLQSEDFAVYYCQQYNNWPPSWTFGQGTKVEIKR
notes: also called 16-G5 full length IgG
With B3, the binding result in the assay with human EpCAM-Fc [2] is listed as “binds”.

B4: 12-C15 IgG (antibody, V domains shown)
VH: QVQLVQSGAEVKKPGSSVKVSCKASGGTFSSYAISWVRQAPGQGLEWMGGIIPIFGTANYAQKFQGRVTITADESTSTAYMELSSLRSEDTAVYYCARGLLWNYWGQGTLVTVSS
VL: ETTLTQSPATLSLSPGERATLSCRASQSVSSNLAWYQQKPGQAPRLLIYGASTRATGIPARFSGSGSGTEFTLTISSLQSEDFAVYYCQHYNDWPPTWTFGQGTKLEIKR
notes: also called 12-C15 full length IgG
As for B4, the binding result with human EpCAM-Fc [2] was “binds”.

B5: 3-17I IgG (antibody, V domains shown)
VH: QVQLVQSGAEVKKPGSSVKVSCKASGGTFSSYAISWVRQAPGQGLEWMGGIIPIFGTANYAQKFQGRVTITADESTSTAYMELSSLRSEDTAVYYCARGLLWNYWGQGTLVTVSS
VL: EIVMTQSPATLSVSPGERATLSCRASQSVSSNLAWYQQKPGQAPRLIIYGASTTASGIPARFSASGSGTDFTLTISSLQSEDFAVYYCQQYNNWPPAYTFGQGTKLEIKR
notes: also called 3-17I full length IgG
The term EC50 (read off the curve) denotes the concentration that produces a half-maximal response. High values mean lower potency in that assay, low ones higher potency in that assay. What is called Kd is the constant that tells how readily two partners part at equilibrium. As a reminder, the koff is a measure of how fast the partners let go of each other. A word on the kon: it is the second-order rate constant of association. B5: in assay [1], the “ADCC EC50, BT-474 cells, human PBMC, E:T 20:1” value worked out at 0.12 ng/mL; the “ADCC EC50, MDA-MB-231 cells, human PBMC, E:T 20:1” value came out at 15 ng/mL; the “ADCC EC50, MDA-MB-453 cells, human PBMC, E:T 20:1” value is 0.08 ng/mL; the “CDC EC50, KATO III cells, human serum” value was 0.28 ng/mL. Also, in assay [1], the “CDC EC50, MT-3 cells, human serum” value worked out at 0.38 ng/mL. The “EC50 (read off the curve)” value in the assay with human EpCAM-Fc [2] is roughly 0.7 nM. For the same molecule, in assay [3], the concentration giving a half-maximal response (EC50 (read off the curve)) was roughly 100 ng/mL. Moreover, in the assay with human EpCAM-Fc [4], the Kd was 1 nM, the koff was 0.03 s⁻¹ and the association rate constant (kon) worked out at 3e+07 M⁻¹ s⁻¹. For the same molecule, the “EC50 (read off the curve)” value with cynomolgus EpCAM-Fc was roughly 0.6 nM.

B6: MOC31 IgG (antibody, V domains shown)
VH: QVKLQQSGPELKKPGETVKISCKASGYTFTNYGMNWVKQAPGKGLKWMGWINTYTGESTYADDFKGRFAFSLETSASAAYLQINNLKNEDTATYFCARFAIKGDYWGQGTTVTVSS
VL: DIVLTQSPFSNPVTLGTSASISCRSTKSLLHSNGITYLYWYLQKPGQSPQLLIYQMSNLASGVPDRFSSSGSGTDFTLRISRVEAEDVGVYYCAQNLEIPRTFGGGTKLEIK
For B6, the “EC50 (read off the curve)” value with human EpCAM-Fc [2] was roughly 1 nM; in assay [3], roughly 300 ng/mL.

B7: 7-F17 scFv (scFv)
scFv: QVQLVQSGAEVKKPGSSVKVSCKASGGTFSSYAISWVRQAPGQGLEWMGGIIPIFGTANYAQKFQGRVTITADESTSTAYMELSSLRSEDTAVYYCARGLLWNYWGQGTLVTVSSKLSGSASAPKLEEGEFSEARVETTLTQSPATLSVSPGERATLSCRASQSVSSNLAWYQQKPGQAPRLLIYGASTRATGIPARFSGSGSGTEFTLTISSLQSEDFAVYYCQQYNNWPPGFTFGPGTKVDIK
In the case of B7, the binding result with human EpCAM-Fc [5] is given as “binds”.

B8: 17-C20 scFv (scFv)
scFv: QVQLVQSGAEVKKPGSSVKVSCKASGGTFSSYAISWVRQAPGQGLEWMGGIIPIFGTANYAQKFQGRVTITADESTSTAYMELSSLRSEDTAVYYCARGLLWNYWGQGTLVTVSSKLSGSASAPKLEEGEFSEARVETTLTQSPATLSVSPGERATLSCRASQSVSSNLAWYQQKPGQAPRLLIYGASTRATGIPARFSGSGSGTEFTLTISSLQSEDFAVYYCQQYNNWPPMYTFGQGTKVEIK
In the case of B8, the binding result in the assay with human EpCAM-Fc [5] was “binds”.

B9: 24-G6 scFv (scFv)
scFv: QVQLVQSGAEVKKPGSSVKVSCKASGGTFSSYAISWVRQAPGQGLEWMGGIIPIFGTANYAQKFQGRVTITADESTSTAYMELSSLRSEDTAVYYCARGLLWNYWGQGTLVTVSSKLSGSASAPKLEEGEFSEARVETTLTQSPATLSVSPGERATLSCRASQSVSSNLAWYQQKPGQAPRLLIYGASTRATGIPARFSGSGSGTEFTLTISSLQSEDFAVYYCQKYNNWPPAFTFGPGTKVDIK
Turning to B9, the binding result with human EpCAM-Fc [5] was “binds”.

B10: 3-17I scFv (scFv)
scFv: QVQLVQSGAEVKKPGSSVKVSCKASGGTFSSYAISWVRQAPGQGLEWMGGIIPIFGTANYAQKFQGRVTITADESTSTAYMELSSLRSEDTAVYYCARGLLWNYWGQGTLVTVSSKLSGSASAPKLEEGEFSEARVEIVMTQSPATLSVSPGERATLSCRASQSVSSNLAWYQQKPGQAPRLIIYGASTTASGIPARFSASGSGTDFTLTISSLQSEDFAVYYCQQYNNWPPAYTFGQGTKLEIK
notes: expressed in E. coli TG1 from pHOG21; also called scFv format of 3-17I; not shown: C-terminal c-myc and His6 tags from pHOG21, with their junction residues
B10: the binding result in the assay with human EpCAM-Fc [5] is reported as “binds”.
